Measured values: PMC9676403, “Crystal structure of the collagen prolyl 4-hydroxylase (C-P4H) catalytic domain complexed with PDI: Toward a model of the C-P4H α2β2 tetramer” (The Journal of Biological Chemistry, 2022)
Blank lines part the entries; values can stand above or below the binder they belong to.

B2: protein disulfide isomerase, the β-subunit of C-P4H (enzyme)
chain: not shown
notes: protein disulfide isomerase, human, called the intact or complete β/PDI subunit, without a tag; codon-optimized gene; the crystal model starts at Glu21; Made in the E. coli cytoplasm, so probably without the signal peptide (my surmise); also called PDI; β/PDI subunit; source: E. coli K12, polycistronic CyDisCo plasmid, coexpressed with the α-subunit and yeast Erv1; co-purified with the His-tagged …
B4: α-subunit of mature human C-P4H-II (enzyme, UniProt O15460-1 22-535, looked up)
chain: EFFTSIGHMTDLIYAEKELVQSLKEYILVEEAKLSKIKSWANKMEALTSKSAADAEGYLAHPVNAYKLVKRLNTDWPALEDLVLQDSAAGFIANLSVQRQFFPTDEDEIGAAKALMRLQDTYRLDPGTISRGELPGTKYQAMLSVDDCFGMGRSAYNEGDYYHTVLWMEQVLKQLDAGEEATTTKSQVLDYLSYAVFQLGDLHRALELTRRLLSLDPSHERAGGNLRYFEQLLEEEREKTLTNQTEAELATPEGIYERPVDYLPERDVYESLCRGEGVKLTPRRQKRLFCRYHHGNRAPQLLIAPFKEEDEWDSPHIVRYYDVMSDEEIERIKEIAKPKLARATVRDPKTGVLTVASYRVSKSSWLEEDDDPVVARVNRRMQHITGLTVKTAELLQVANYGVGGQYEPHFDFSRNDERDTFKHLGTGNRVATFLNYMSDVEAGGATVFPDLGAAIWPKKGTAVFWYNLLRSGEGDYRTRHAACPVLVGCKWVSNKWFHERGQEFLRPCGSTEVD
notes: collagen prolyl 4-hydroxylase α(II) subunit, human, isoform-IIb splice variant (exon 12b); the complex is called mature C-P4H-II; codon-optimized gene; also called α(II); Hs-α(II); source: E. coli K12, polycistronic CyDisCo plasmid, coexpressed with β/PDI and yeast Erv1; purified (Talon IMAC, HiTrap Q, Superdex 200); not shown: His6, N-terminal, kept

Experiments:
[1] = target: B2; assay: SEC-MALS; purified, frozen-thawed co-expressed complex on Superdex 200 Increase 10/300 GL in SEC buffer (50 mM Tris, pH 7.8, 50 mM NaCl, 100 mM glycine); settings: both partners purified
[2] = target: B4; assay: co-purification; His6-tagged α-subunit coexpressed with untagged β/PDI in E. coli (CyDisCo); Talon IMAC from the lysate, HiTrap Q, Superdex 200, 4 °C, Tris pH 7.8; subunits found in the purified sample by SDS-PAGE and MS; settings: partners not purified
[3] = target: B2; assay: as above; settings: partners not purified
[4] = target: the molecule itself; assay: SEC-MALS; purified, frozen-thawed co-expressed complex on Superdex 200 Increase 10/300 GL in SEC buffer (50 mM Tris, pH 7.8, 50 mM NaCl, 100 mM glycine)

Binder: B2
binding result [2]: binds

Binder: B4
binding result [4]: binds

The remaining lines, values ahead:

binding result [1]: binds
B1: α-subunit of human C-P4H-II truncated to the catalytic (CAT) domain, construct C-P4H-II-Δ281 (domain or fragment, UniProt O15460-1 282-535, looked up)
chain: DYLPERDVYESLCRGEGVKLTPRRQKRLFCRYHHGNRAPQLLIAPFKEEDEWDSPHIVRYYDVMSDEEIERIKEIAKPKLARATVRDPKTGVLTVASYRVSKSSWLEEDDDPVVARVNRRMQHITGLTVKTAELLQVANYGVGGQYEPHFDFSRNDERDTFKHLGTGNRVATFLNYMSDVEAGGATVFPDLGAAIWPKKGTAVFWYNLLRSGEGDYRTRHAACPVLVGCKWVSNKWFHERGQEFLRPCGSTEVD
notes: residues 534-535 are named as the C-terminal residues; codon-optimized gene; Linked to PDI in the crystal by intersubunit disulfide bridges (Cys311-Cys397, Cys529-Cys53); also called Hs-α(II) from D282; source: E. coli K12, polycistronic CyDisCo plasmid, coexpressed with β/PDI and yeast Erv1; purified (Talon IMAC, HiTrap Q, Superdex 200)

binding result [3]: binds
B3: α-subunit of human C-P4H-II lacking the N-terminal dimerization domain, construct C-P4H-II-Δ140 (domain or fragment, UniProt O15460-1 141-535, looked up)
chain: DTYRLDPGTISRGELPGTKYQAMLSVDDCFGMGRSAYNEGDYYHTVLWMEQVLKQLDAGEEATTTKSQVLDYLSYAVFQLGDLHRALELTRRLLSLDPSHERAGGNLRYFEQLLEEEREKTLTNQTEAELATPEGIYERPVDYLPERDVYESLCRGEGVKLTPRRQKRLFCRYHHGNRAPQLLIAPFKEEDEWDSPHIVRYYDVMSDEEIERIKEIAKPKLARATVRDPKTGVLTVASYRVSKSSWLEEDDDPVVARVNRRMQHITGLTVKTAELLQVANYGVGGQYEPHFDFSRNDERDTFKHLGTGNRVATFLNYMSDVEAGGATVFPDLGAAIWPKKGTAVFWYNLLRSGEGDYRTRHAACPVLVGCKWVSNKWFHERGQEFLRPCGSTEVD
notes: collagen prolyl 4-hydroxylase α(II) subunit, human, isoform-IIb splice variant (exon 12b), first 140 residues deleted, starts at Asp141; holds the PSB and CAT domains; codon-optimized gene; also called PSB and CAT; Hs-α(II) from D141; source: E. coli K12, polycistronic CyDisCo plasmid, coexpressed with β/PDI and yeast Erv1; purified (Talon IMAC, HiTrap Q, Superdex 200); not shown: His6, …
